These results are taken from patent US20260234276A1 (DOMAIN THERAPEUTICS, published 2026).

Values joined by “and” are separate entries in the source; they are usually repeats but may differ in a detail not shown here. Identical values can stand only once.

The target of assay [1] is T1, human CCR8 (human, UniProt P51685 1-355). Put plainly: cell-based or functional assay.
Assay [2] concerns the target T1, human CCR8. The assay can be described thus: flow cytometry, hCCR8 transfected CHOK1 cells. How it is done:
Briefly, 1·10⁵ cells per well in a 96 well plate were incubated with a dilution of unconjugated anti-CCR8 mAb at 10 μg/mL then diluted at 1/3.33, 4 dilution points (during 30 min at 4° C.). […] To determine EC50 value, 8 concentrations of anti-CCR8 mAb were tested. Unbound antibodies were washed away with PBS (Invitrogen by Thermofisher Scientific, Illkirch-Graffenstaden, France) supplemented by 2% Fetal Bovine Serum (Invitrogen by Thermofisher Scientific, Illkirch-Graffenstaden, France) and 2 mM EDTA (Invitrogen by Thermofisher Scientific, Illkirch-Graffenstaden, France). Subsequently, cells are centrifuged (5 min at 400 g) and bound antibody is detected with F(ab′)₂-Goat anti-Mouse IgG (H+L) Cross-Adsorbed Secondary Antibody, Alexa Fluor 488 (dilution 1/500) (Invitrogen by Thermofisher Scientific, Illkirch-Graffenstaden, France) or with F(ab′)₂-Goat anti-Human IgG Fc Secondary Antibody, PE (Invitrogen by Thermofisher Scientific, Illkirch-Graffenstaden, France) (dilution 1/1000) at 4° C. for 30 min. Detection reagent is washed away and cells are centrifuged (5 min at 400 g) and resuspended in 30 μL PBS. Bound detection antibody is quantified on a MacsQuant16 (Miltenyi, Gladbach, Germany) (B1 or B2 channel, 5000 events per acquisition).
A general note: A flow cytometer gives signals particle by particle.

Another assay has as its target pm3 (human, sulfated tyrosine at Y17). Put plainly: ELISA on coated peptide [cont.]. How it is done:
(§1) The specific binding properties of antibodies were evaluated by ELISA with coated CCR8 related peptides (500 ng/mL) in carbonate/bicarbonate buffer. Different peptides were used as described in Table 1 (see Example 1). Each anti-CCR8 mAb was tested at 1 μg/mL then diluted at 1/10. After an incubation at room temperature during 90 min, unbound mAbs were removed by washings. […] After washings, 3,3′,5,5′-tetramethylbenzidine (TMB) (Interchim, Montlugon, France) was added for 15 min. Then the optical density (OD) was determined by using a multiplate reader (Tecan, Lyon, France) and correlated with mAb reactivity on the panel of coated peptides.
(In general: In an ELISA, binding on a coated surface is turned into a signal by an enzyme label.)

For a further assay, the target named is pm8 (human, sulfated tyrosines at Y15, Y16 and Y17). The assay can be described thus: ELISA on coated peptide [cont.]. How it is done:
as §1

Another assay has as its target pm6 (human, sulfated tyrosines at Y16 and Y17). Put plainly: ELISA on coated peptide [cont.]. The method, then: as §1
For a further assay, the target named is pm5 (human, sulfated tyrosines at Y15 and Y17). Put plainly: ELISA on coated peptide [cont.]. The method, then: as §1
The target of assay [3] is T1, human CCR8. The assay can be described thus: cell-based or functional assay. The source holds these as a separate data set.

Chain of pm6 (human, sulfated tyrosines at Y16 and Y17) (peptide, as listed by the source): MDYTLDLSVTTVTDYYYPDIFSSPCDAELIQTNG
Chain of pm8 (human, sulfated tyrosines at Y15, Y16 and Y17) (peptide, as listed by the source): as above
Chain of pm3 (human, sulfated tyrosine at Y17) (peptide, as listed by the source): as above
Chain of pm5 (human, sulfated tyrosines at Y15 and Y17) (peptide, as listed by the source): as above

B1: 3-11 (antibody, V domains shown)
VH: EVQLVESGGGLVQPKGSLKLSCAASGFTFNTYAMNWVRQAPGKGLEWVARIRSKSNNYATYYADSVKDRFTISRDDSQSMLYLQMNNLKTEDTAMYYCVRGREAYYRYDGGYYAMDYWGQGTSVTVSS
VL: DIVMTQAAPSVPVTPGESVSISCRSSKSLLHSNGNTYLYWFLQRPGQSPQLLIYRMSNLASGVPDRFSGSGSGTAFTLRISRVEAEDVGVYYCMQHLEYPFTFGSGTKLEIK
B1: in the assay with human CCR8 [1], the “hCCL1 (100 nM) residual response, Protocol #2, mAb 0.08 µg/mL” value was 60%; the “hCCL1 (100 nM) residual response, Protocol #2, mAb 0.4 µg/mL” value stood at 36%; the “hCCL1 (100 nM) residual response, Protocol #2, mAb 10 µg/mL” value is 19%; the “hCCL1 (100 nM) residual response, Protocol #3, mAb 0.05 µg/mL” value is 74%. In addition, in the assay with human CCR8 [1], the “hCCL1 (100 nM) residual response, Protocol #3, mAb 0.5 µg/mL” value worked out at 68% and the “hCCL1 (100 nM) residual response, Protocol #3, mAb 5 µg/mL” value amounted to 48%. Besides, in the assay with human CCR8 [2], the “% positive cells” value is 90.6% and the “MFI fold change to isotype ctrl” value came to 22.7 fold. Besides, the binding result with pm3 is reported as “binds”. The binding result in the assay with pm8 was “binds”. Besides, the binding result with pm6 was “binds”. For the same molecule, in the assay with pm5, the binding result is listed as “binds”. Also, in the assay with human CCR8 [3], the “IC50 (Gi2 BRET, pH 6.5)” value was 0.03 µg/ml and 0.198 nM; the “IC50 (Gi2 BRET, pH 7.4)” value is 0.031 µg/ml and 0.21 nM.

B2: 3-30 (antibody, V domains shown)
VH: EVQLVESGGGLVQPKGSLRLSCAASGFTFNAYAMNWVRQAPGKGLEWVARIRSKSNNYATYYGDSVKDRFTISRDDSQTMLYLQMNNLKTEDTAMYYCVRGREAYYRYDGDYYAMDYWGQGTSVTVSS
VL: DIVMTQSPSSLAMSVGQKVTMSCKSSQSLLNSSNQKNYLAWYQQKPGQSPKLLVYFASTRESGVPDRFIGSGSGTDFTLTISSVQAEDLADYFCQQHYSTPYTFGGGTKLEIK
Take B2: in the assay with human CCR8 [1], the “hCCL1 (100 nM) residual response, Protocol #2, mAb 0.08 µg/mL” value was 70%; the “hCCL1 (100 nM) residual response, Protocol #2, mAb 0.4 µg/mL” value worked out at 44%; the “hCCL1 (100 nM) residual response, Protocol #2, mAb 10 µg/mL” value worked out at 51%; the “hCCL1 (100 nM) residual response, Protocol #3, mAb 0.05 µg/mL” value came out at 78%. Further, in the assay with human CCR8 [1], the “hCCL1 (100 nM) residual response, Protocol #3, mAb 0.5 µg/mL” value was 55% and the “hCCL1 (100 nM) residual response, Protocol #3, mAb 5 µg/mL” value worked out at 43%. Also, in the assay with human CCR8 [2], the “% positive cells” value was 68.5% and the “MFI fold change to isotype ctrl” value was found to be 5.12 fold. Besides, the binding result in the assay with pm3 was “binds”. In the assay with pm8, the binding result is given as “binds”. Further, in the assay with pm6, the binding result was “binds”. The binding result with pm5 was “binds”. In addition, in the assay with human CCR8 [3], the “IC50 (Gi2 BRET, pH 6.5)” value was 0.053 µg/ml and 0.355 nM; the “IC50 (Gi2 BRET, pH 7.4)” value was 0.063 µg/ml and 0.421 nM.

B3: 3-32 (antibody, V domains shown)
VH: EVQLVESGGGLVQPKGSLKLSCAASGFTFNAYAMNWVRQAPGKGLEWLARIRSKSNNYATYYADSVKDRFTISRDDSQSMFYLQMNNLKSEDTAMYYCVRGREAYYRYDGGYYAMDYWGQGTSVTVSS
VL: EIVMTQAALSAPVTPGESVSMSCRSSKSLLHSNGNTYLYWFLQRPGQSPQLLIYRMSNLASGVPDRFSGSGSGTAFTLRISRVEAEDVGVYYCMQHLEYPFTFGSGTKLEIK
B3: in the assay with human CCR8 [1], the “hCCL1 (100 nM) residual response, Protocol #2, mAb 0.08 µg/mL” value stood at 88%; the “hCCL1 (100 nM) residual response, Protocol #2, mAb 0.4 µg/mL” value turned out to be 57%; the “hCCL1 (100 nM) residual response, Protocol #2, mAb 10 µg/mL” value came out at 46%; the “hCCL1 (100 nM) residual response, Protocol #3, mAb 0.05 µg/mL” value worked out at 73%. In addition, in the assay with human CCR8 [1], the “hCCL1 (100 nM) residual response, Protocol #3, mAb 0.5 µg/mL” value was 36% and the “hCCL1 (100 nM) residual response, Protocol #3, mAb 5 µg/mL” value amounted to 36%. Besides, in the assay with human CCR8 [2], the “% positive cells” value stood at 81.8% and the “MFI fold change to isotype ctrl” value came to 16.2 fold. Further, the binding result with pm3 is “binds”. Besides, the binding result in the assay with pm8 was “binds”. Moreover, in the assay with pm6, the binding result is given as “binds”. In the assay with pm5, the binding result was “binds”. In the assay with human CCR8 [3], the “IC50 (Gi2 BRET, pH 6.5)” value is 0.071 µg/ml and 0.476 nM; the “IC50 (Gi2 BRET, pH 7.4)” value is 0.089 µg/ml and 0.596 nM.

B4: 3-14 (antibody, V domains shown)
VH: EVQLVESGGGLVQPTGSLRLSCAASGFTFNAYAMNWVRQAPGKGLEWVARIRSKSNDYATYYGDSVKDRFTISRDDSQSMLYLQMNNLKTEDTAMYYCVRGREAYYRYDGGYYAMDYWGQGTSVTVSS
VL: DIVMTQAAPSVSVTPGESVSISCTSSKSLLHSNGNTYLYWFLQRPGQSPQLLIYRMSNLASGVPDRFSGSGSGTAFTLRISRVEAEDVGVYYCMQHREYPFTFGSGTKLEIK
Regarding B4, in the assay with human CCR8 [1], the “hCCL1 (100 nM) residual response, Protocol #2, mAb 0.08 µg/mL” value was determined as 72%; the “hCCL1 (100 nM) residual response, Protocol #2, mAb 0.4 µg/mL” value stood at 49%; the “hCCL1 (100 nM) residual response, Protocol #2, mAb 10 µg/mL” value stood at 28%; the “hCCL1 (100 nM) residual response, Protocol #3, mAb 0.05 µg/mL” value worked out at 75%. For the same molecule, in the assay with human CCR8 [1], the “hCCL1 (100 nM) residual response, Protocol #3, mAb 0.5 µg/mL” value is 36% and the “hCCL1 (100 nM) residual response, Protocol #3, mAb 5 µg/mL” value stood at 22%. In the assay with human CCR8 [2], the “% positive cells” value was 66.8% and the “MFI fold change to isotype ctrl” value came to 5.06 fold. In addition, the binding result with pm3 is recorded as “binds”. In addition, the binding result with pm8 was “binds”. Besides, the binding result in the assay with pm6 is “binds”. In addition, the binding result with pm5 was “binds”. Moreover, in the assay with human CCR8 [3], the “IC50 (Gi2 BRET, pH 6.5)” value was 0.034 µg/ml and 0.225 nM; the “IC50 (Gi2 BRET, pH 7.4)” value is 0.065 µg/ml and 0.434 nM.

B5: 3-29 (antibody, V domains shown)
VH: QVHLVETGGGLVRPGNSLKLSCVTSGFTLSNYRMHWLRQPPGKRLEWIAVIKVKSDNYGANYAESVKGRFTISRDDAKSSVYLQMNRLREEDTATYYCSRPDGFSPFVYWGQGTLVTVSA
VL: DIKMTQSPSSMYASLGERVTITCKASQDINSYLSWFQQKPGKSPKTLIYRANRLVDGVPSRFSGSGSGQDYFLTISSLEYEDMGIYYCLQYGEFPPTFGAGTKLELK
As for B5, in the assay with human CCR8 [1], the “hCCL1 (100 nM) residual response, Protocol #2, mAb 0.08 µg/mL” value was found to be 73%; the “hCCL1 (100 nM) residual response, Protocol #2, mAb 0.4 µg/mL” value was 51%; the “hCCL1 (100 nM) residual response, Protocol #2, mAb 10 µg/mL” value was 24%; the “hCCL1 (100 nM) residual response, Protocol #3, mAb 0.05 µg/mL” value was found to be 69%. In addition, in the assay with human CCR8 [1], the “hCCL1 (100 nM) residual response, Protocol #3, mAb 0.5 µg/mL” value came to 38% and the “hCCL1 (100 nM) residual response, Protocol #3, mAb 5 µg/mL” value was 30%. Also, in the assay with human CCR8 [2], the “% positive cells” value came out at 71.3% and the “MFI fold change to isotype ctrl” value is 6.26 fold. The binding result with pm3 is given as “binds”. In addition, the binding result with pm8 was “binds”. Also, the binding result with pm6 is recorded as “binds”. Besides, the binding result in the assay with pm5 was “binds”. Besides, in the assay with human CCR8 [3], the “IC50 (Gi2 BRET, pH 6.5)” value was 0.011 µg/ml and 0.073 nM; the “IC50 (Gi2 BRET, pH 7.4)” value is 0.007 µg/ml and 0.047 nM.

B6: 3-28 (antibody, V domains shown)
VH: EVQLQQSGPELLKPGTSVKISCTTSGYTFSDYTLHWVKQSHGKSLEWIGGITPKNGDTRYDPRFKDKATLTIDKSSSAAYMELRSLTSEDSAVYYCARVARFYGVSPYAMDYWGQGASVTVSS
VL: DVVMTQTPLSLPVSLGDQASISCRCTQSLLHSNGDTYLHWYLQKPGQSPKLLIYKVSNRFSGVPDRFSGSGSGTDFTLEITRVEAEDLGVYFCSQTTHVPYTFGGGTKLEIK
As to B6, in the assay with human CCR8 [1], the “hCCL1 (100 nM) residual response, Protocol #2, mAb 0.08 µg/mL” value came to 79%; the “hCCL1 (100 nM) residual response, Protocol #2, mAb 0.4 µg/mL” value was 38%; the “hCCL1 (100 nM) residual response, Protocol #2, mAb 10 µg/mL” value is 17%; the “hCCL1 (100 nM) residual response, Protocol #3, mAb 0.05 µg/mL” value amounted to 102%. Also, in the assay with human CCR8 [1], the “hCCL1 (100 nM) residual response, Protocol #3, mAb 0.5 µg/mL” value is 64% and the “hCCL1 (100 nM) residual response, Protocol #3, mAb 5 µg/mL” value is 47%. In the assay with human CCR8 [2], the “% positive cells” value was 81.1% and the “MFI fold change to isotype ctrl” value came out at 10.7 fold. In addition, the binding result with pm3 is reported as “binds”. Moreover, the binding result with pm8 is recorded as “binds”. Further, the binding result with pm6 was “binds”. In addition, the binding result with pm5 was “binds”. In the assay with human CCR8 [3], the “IC50 (Gi2 BRET, pH 6.5)” value was 0.044 µg/ml and 0.292 nM; the “IC50 (Gi2 BRET, pH 7.4)” value was 0.061 µg/ml and 0.405 nM.
